Here are results for one molecule from patent US20250136680A1 (SHANGHAI QILU PHARMACEUTICAL RESEARCH AND DEVELOPMENT CENTRE, published 2025).

In assay [1] the target is T1, human DLL3 (hDLL3) expressed on tumor cells (human, UniProt Q9NYJ7 27-618).
T1 sequence (looked up): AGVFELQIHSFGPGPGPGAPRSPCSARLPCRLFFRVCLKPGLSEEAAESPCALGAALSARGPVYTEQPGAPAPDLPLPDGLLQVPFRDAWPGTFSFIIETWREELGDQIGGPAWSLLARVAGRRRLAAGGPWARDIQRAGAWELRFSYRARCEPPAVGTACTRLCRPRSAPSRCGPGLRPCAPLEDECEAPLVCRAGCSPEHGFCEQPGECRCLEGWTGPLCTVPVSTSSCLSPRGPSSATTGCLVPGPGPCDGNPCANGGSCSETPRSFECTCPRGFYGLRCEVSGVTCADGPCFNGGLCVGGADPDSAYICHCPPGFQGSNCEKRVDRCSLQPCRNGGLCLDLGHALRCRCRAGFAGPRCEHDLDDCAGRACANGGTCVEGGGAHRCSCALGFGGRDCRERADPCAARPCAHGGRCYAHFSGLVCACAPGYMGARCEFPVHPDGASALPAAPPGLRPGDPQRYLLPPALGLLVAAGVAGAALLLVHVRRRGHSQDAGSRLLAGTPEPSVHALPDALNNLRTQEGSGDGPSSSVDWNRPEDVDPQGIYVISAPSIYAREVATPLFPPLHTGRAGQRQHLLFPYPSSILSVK
Kind of assay: cell-based or functional assay.

For assay [2], the target named is T1, human DLL3 (hDLL3) expressed on tumor …. Kind of assay: flow cytometry (FACS) on SHP-77 cells expressing hDLL3. (In general: In flow cytometry, cells or beads pass a laser one at a time.)
Assay [3] deals with T2, cynomolgus DLL3 (purchased from Kaixia, Cat. No. DLL-RM103) (cynomolgus, UniProt A0A2K5WSR1 27-490).
T2 construct: Bought recombinant protein
T2 sequence: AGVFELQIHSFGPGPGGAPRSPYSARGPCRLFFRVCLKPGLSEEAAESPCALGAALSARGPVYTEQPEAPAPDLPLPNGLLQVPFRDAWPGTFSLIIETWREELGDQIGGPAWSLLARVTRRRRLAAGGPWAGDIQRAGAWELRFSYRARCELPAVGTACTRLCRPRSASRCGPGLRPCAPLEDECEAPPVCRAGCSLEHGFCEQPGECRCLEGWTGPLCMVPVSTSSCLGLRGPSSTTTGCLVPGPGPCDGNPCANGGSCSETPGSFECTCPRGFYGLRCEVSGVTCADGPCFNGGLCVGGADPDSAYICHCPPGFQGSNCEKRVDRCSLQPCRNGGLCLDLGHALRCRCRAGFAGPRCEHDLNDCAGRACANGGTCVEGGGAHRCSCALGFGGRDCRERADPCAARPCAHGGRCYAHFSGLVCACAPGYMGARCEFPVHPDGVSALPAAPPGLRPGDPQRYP
Kind of assay: SPR (Biacore 8K), bispecific captured by anti-human Fc on CM5, DLL3 as analyte, 1:1 Langmuir fit. In general terms: In SPR one partner is held on a chip, and binding of the other changes the refractive index at the surface.

The target of assay [4] is T3, human DLL3 (purchased from Kaixia, Cat. No DLL-HM103) (human, UniProt Q9NYJ7 27-492, limits assumed).
T3 construct: Bought recombinant protein; also called human DLL3 protein
T3 sequence (looked up): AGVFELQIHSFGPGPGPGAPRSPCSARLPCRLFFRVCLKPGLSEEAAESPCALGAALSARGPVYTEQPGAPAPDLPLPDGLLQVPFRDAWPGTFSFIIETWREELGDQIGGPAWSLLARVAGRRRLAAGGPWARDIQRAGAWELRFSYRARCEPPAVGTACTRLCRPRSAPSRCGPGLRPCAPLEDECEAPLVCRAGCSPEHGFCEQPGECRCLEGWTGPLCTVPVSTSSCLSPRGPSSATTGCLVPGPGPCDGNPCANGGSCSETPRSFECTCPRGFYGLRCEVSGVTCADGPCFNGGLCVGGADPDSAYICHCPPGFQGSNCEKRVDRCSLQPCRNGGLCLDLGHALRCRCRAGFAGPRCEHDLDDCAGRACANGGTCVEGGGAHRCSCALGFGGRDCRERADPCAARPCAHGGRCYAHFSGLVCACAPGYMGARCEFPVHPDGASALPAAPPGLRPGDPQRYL
Described as above.

Assay [5] concerns the target T4, cynomolgus CD3 (purchased from Acro, Cat. No. CDD-C52W4) (cynomolgus, UniProt Q95LI5 22-117).
T4 sequence (looked up): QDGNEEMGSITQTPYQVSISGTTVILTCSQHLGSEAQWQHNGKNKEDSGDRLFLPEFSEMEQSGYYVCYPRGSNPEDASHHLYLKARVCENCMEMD
Nature of the assay: SPR (Biacore 8K), CD3 immobilised directly on CM5, bispecific as analyte, 1:1 Langmuir fit.

Assay [6] addresses human CD3 (purchased from Acro, Cat. No. CDD-H52W1) (human, UniProt P07766 23-126). The description is as above.
For assay [7], the target named is T5, human CD3 (hCD3) naturally expressed on Jurkat cells (human, UniProt P07766 23-207).
T5 construct: whole, on cells; on the cells it is part of the whole TCR/CD3 complex; also called Jurkat cell line
T5 sequence (P07766 23-207): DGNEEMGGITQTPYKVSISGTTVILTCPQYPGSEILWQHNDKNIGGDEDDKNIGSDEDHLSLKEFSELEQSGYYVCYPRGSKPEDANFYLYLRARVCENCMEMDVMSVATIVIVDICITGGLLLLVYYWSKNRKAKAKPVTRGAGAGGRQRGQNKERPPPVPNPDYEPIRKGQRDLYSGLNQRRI
Nature of the assay: flow cytometry (FACS) on Jurkat cells naturally expressing hCD3.

Chain of human CD3 (purchased from Acro, Cat. No. CDD-H52W1) (P07766 23-126): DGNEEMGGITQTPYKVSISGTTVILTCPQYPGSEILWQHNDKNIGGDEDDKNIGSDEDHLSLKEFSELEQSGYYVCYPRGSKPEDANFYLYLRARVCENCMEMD

B1: Bispecific antibody 2 (bispecific antibody, IgG1)
heavy: not shown
chain: DKTHTCPPCPAPEAAGGPSVFLFPPKPKDTLMISRTPEVTCVVVDVSHEDPEVKFNWYVDGVEVHNAKTKPREEQYNSTYRVVSVLTVLHQDWLNGKEYKCKVSNKALPAPIEKTISKAKGQPREPQVCTLPPSRDELTKNQVSLSCAVKGFYPSDIAVEWESNGQPENNYKTTPPVLDSDGSFFLVSKLTVDKSRWQQGNVFSCSVMHEALHNRYTQKSLSLSPGK
light: EIVLTQSPATLSLSPGERATLSCRASQSINNNLHWYQQKPGQAPRLLIKYVSQSISGIPARFSGSGSGTDFTLTISSLEPEDFAVYYCQQTNAWPLTFGGGTKLEIKRTVAAPSVFIFPPSDEQLKSGTASVVCLLNNFYPREAKVQWKVDNALQSGNSQESVTEQDSKDSTYSLSSTLTLSKADYEKHKVYACEVTHQGLSSPVTKSFNRGEC
notes: Knob heavy chain: DLL3 VH-CH1-(G4S)3-CD3 scFv-EPKSS-IgG1 Fc (S354C, T366W, L234A/L235A); Hole chain: Fc only (Y349C, T366S, L368A, Y407V, H435R); Light chain: that of H2-39E2D11-NA; also called anti-CD3-DLL3 bispecific antibody
As to B1, the “TDCC EC50 (nM), NCI-H82 cell line” value in assay [1] came to 80.2 nM. In addition, in assay [1], the “TDCC EC50 (nM), SHP-77 cell line” value came out at 136 nM. Moreover, the EC50 in assay [2] is 3.11 nM; in assay [7], 57.9 nM. Further, the Kd in assay [3] was determined as 0.887 nM; in assay [4], 0.647 nM; in assay [5], 11.1 nM; in assay [6], 9.09 nM. Further, the off-rate (koff) stood at 8.6e-05 s⁻¹ in assay [3], 7.92e-05 s⁻¹ in assay [4], 0.00405 s⁻¹ in assay [5] and 0.00414 s⁻¹ in assay [6]. The association rate constant (kon) in assay [3] amounted to 97000 M⁻¹ s⁻¹; in assay [4] it was 122000 M⁻¹ s⁻¹.

By EC50 is commonly meant the concentration that produces a half-maximal response. High values mean a less potent agent, low ones a more potent agent. One may read the Kd as the concentration at which binding is half-saturated. A low value points to higher affinity. Broadly, the koff is the first-order rate constant of dissociation. Low values mean a long-lived complex, high ones a short-lived complex. The term kon denotes the rate constant with which the complex forms.
